Data: US10370436B2, “Anti-pseudomonas Psl binding molecules and uses thereof” (priority 2011, dated 2019)
Numbering of substitutions follows the chain as printed.

B1: WapR-001: anti-Psl antibody, VH SEQ ID NO: 5 and VL SEQ ID NO: 6 (antibody, V domains shown)
VH: EVQLLESGGGLVQPGGSLRLSCSASGFTFSRYPMHWVRQAPGKGLEYVSDIGTNGGSTNYADSVKGRFTISRDNSKNTVYLQMSSLRAEDTAVYHCVAGIAAAYGFDVWGQGTMVTVSS
VL: QAGLTQPASVSGSPGQSITISCTGTSSDIATYNYVSWYQQHPGKAPKLMIYEGTKRPSGVSNRFSGSKSGNTASLTISGLQAEDEADYYCSSYARSYTYVFGTGTELTVL
modifications: WapR-001 VH; WapR-001 VL
B2: WapR-007: antibody, VH SEQ ID NO: 13 and VL SEQ ID NO: 14 (antibody, V domains shown)
VH: EVQLVQSGADVKKPGASVRVTCKASGYTFTGHNIHWVRQAPGQGLEWMGWINPDSGATSYAQKFQGRVTMTRDTSITTAYMDLSRLRSDDTAVYYCATDTLLSNHWGQGTLVTVSS
VL: SSELTQDPAVSVALGQTVRITCQGDSLRSYYTNWFQQKPGQAPLLVVYAKNKRPPGIPDRFSGSSSGNTASLTITGAQAEDEADYYCHSRDSSGNHVVFGGGTKLTVL
modifications: WapR-007 VH; WapR-007 VL
B3: WapR-002: anti-Psl antibody, VH SEQ ID NO: 7 and VL SEQ ID NO: 8 (antibody, V domains shown)
VH: QVQLVQSGGGLVQPGGSLRLSCSASGFTFSSYPMHWVRQAPGKGLDYVSDISPNGGSTNYADSVKGRFTISRDNSKNTLFLQMSSLRAEDTAVYYCVMGLVPYGFDIWGQGTLVTVSS
VL: QTVVTQPASVSGSPGQSITISCTGTSSDVGGYNYVSWYQQHPGKAPKLMIYEVSNRPSGVSNHFSGSKSGNTASLTISGLQAEDEADYYCSSYTTSSTYVFGTGTKVTVL
modifications: WapR-002 VH; WapR-002 VL
B4: WapR-003: anti-Psl antibody, VH SEQ ID NO: 9 and VL SEQ ID NO: 10 (antibody, V domains shown)
VH: B3 VH with V2M, S57A, L79V, F80Y, I107N, L113M
VL: QTVVTQPASVSASPGQSITISCAGTSGDVGNYNFVSWYQQHPGKAPKLLIYEGSQRPSGVSNRFSGSRSGNTASLTISGLQAEDEADYYCSSYARSYTYVFGTGTKLTVL
modifications: WapR-003 VH; WapR-003 VL

System: Psl (enriched carbohydrate purified from PAO1ΔwbpL/algD/pelA)
Test: Psl capture binding assay (FORTEBIO OCTET 384)
Set-up: species or system Pseudomonas aeruginosa
Details: FIG. 3K
Procedure: To confirm that all of the antibodies bound to the same antigen, a Psl capture binding assay was performed using a FORTEBIO® OCTET® 384 instrument as described above. The antigen was proteinase K-treated enriched carbohydrate purified from PAO1ΔwbpL/algD/pelA (O-antigen-, alginate- and Pel exopolysaccharide-deficient). Individual antibodies were bound to aminopropylsilane biosensors followed by blocking and the addition of the enriched carbohydrate antigen. After washing to remove unbound antigen, binding of unlabelled mAbs to captured antigen was assessed.

Row | Molecule | reactivity of unlabelled mAb to captured Psl
1 | B1 | reacted
2 | B2 | Minimal reactivity
3 | B3 | reacted
4 | B4 | reacted

Same assay, conditions: antibody bound to aminopropylsilane biosensors; FIG. 3K

Row | Molecule | capture of Psl antigen by biosensor-bound antibody
5 | B1 | capable of capturing antigen
6 | B2 | capable of capturing antigen
7 | B3 | capable of capturing antigen
8 | B4 | capable of capturing antigen
